Assay results: US11278600B2, “Human alpha-galactosidase variants” (Codexis, Inc., priority 2014, dated 2022)

Columns and labels:
Assay type in all cases: biochemical
[1] = HTP-analysis of yeast culture supernatants, no challenge (MUGal hydrolysis); conditions: activity of the variant/activity of Rd2BB (SEQ ID NO: 10), yeast supernatant
Method in brief: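 Activity read as 4-methylumbelliferyl α-D-galactopyranoside hydrolysis: fluorescence (355/448 nm) after sodium carbonate stop, following 30-180 min at 37° C with 2 mM MUGal stock at pH 4.6–4.8. Enzyme source is unchallenged culture supernatant of INVSc1 yeast expressing GLA variants, grown 66-84 h at 30° C.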

[2] = HTP-analysis of supernatants pretreated with acid (MUGal hydrolysis); conditions: challenge at pH 4.2; activity of the variant/activity of Rd2BB (SEQ ID NO: 10); yeast supernatant
Method in brief: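 GLA variants were secreted from INVSc1 yeast grown 66-84 h at 30° C. in SD-Ura with 2% glucose; supernatants were mixed with McIlvaine buffer pH 3.3-4.3 and held at 37° C. for 1-3 h. Residual activity on MUGal at pH 4.8 was then measured by fluorescence.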

[3] = HTP-analysis of supernatants pretreated with base (MUGal hydrolysis); conditions: challenge at pH 7.6; activity of the variant/activity of Rd2BB (SEQ ID NO: 10); yeast supernatant
Method in brief: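 Fluorescence of released 4-MU (Ex 355 nm, Em 448 nm) after carbonate quench reports MUGal hydrolysis by GLA variants secreted from INVSc1 yeast. Before the acidic (pH 4.3-4.8) 30-180 min reaction at 37° C, supernatants had been pre-incubated at pH 7.0-9.7 for 1-18 h at 37° C.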

Row | Molecule | Relative Activity of GLA Variants After No Challenge (NC) [1] | Relative Activity of GLA Variants After Challenge at pH 4.2 [2] | Relative Activity of GLA Variants After Challenge at pH 7.6 [3]
1 | 223 (protein, Synthetic Polypeptide sequence of Variant No. 223 of mature Human GLA) LDNGLARTPTMGWLHWERFMCNLDCQEEPDSCISEKLFMEMAELMVSEGWKDAGYEYLCIDDCWMAPQRDSEGRLQADPQRFPHGIRQLANYVHSKGLKLGIYADVGNKTCAGFPGSFGYYDIDAQTFADWGVDLLKFDGCYCDSLENLADGYKHMSLALNRTGRSIVYSCEWPLYMWPFQKPNYTEIRQYCNHWRNFADIDDSWASIKSILDWTSFNQERIVDVAGPGGWNDPDMLVIGNFGLSWNQQVTQMALWAIMAAPLFMSNDLRHISPQAKALLQDKDVIAINQDPLGKQGYQLRKGDNFEVWERPLSGLAWAVAMINRQEIGGPRSYTIPVASLGKGVACNPGCFITQLLPVKRQLGFYEWTSRLRSHINPTGTVLLQLENTMQMSKDLLL | + (+ = 0.5 to 1.5 relative activity over Rd2BB (SEQ ID NO: 10)) | ++ (++ = 1.5 to 2.5 relative activity over Rd2BB (SEQ ID NO: 10)) | ++ (++ = 1.5 to 2.5 relative activity over Rd2BB (SEQ ID NO: 10))
2 | 225 (protein, Synthetic Polypeptide sequence of Variant No. 182 of mature Human GLA) LDNGLARTPTMGWLHWERFMCNLDCQEEPDSCISEKLFMEMAELMVSEGWKDAGYEYLCIDDCWMAPQRDSEGRLQADPQRFPHGIRQLANYVHSKGLKLGIYADVGNKTCAGFPGSFGYYDIDAQTFADWGVDLLKFDGCYCDSLENLADGYKHMSLALNRTGSSIVYSCEWPLYMWPFQKPNYTEIRQYCNHWRNFADIDDSWASIKSILDWTSFNQERIVDVAGPGGWNDPDMLVIGNFGLSWNQQVTQMALWAIMAAPLFMSNDLRHISPQAKALLQDKDVIAINQDPLGKQGYQLRQGDNFEVWERPLSGLAWAVAMINRQEIGGPRSYTIAVASLGKGVACNPACFITQLLPVKRKLGFYEWTSRLRSHINPTGTVLLQLENSMQMSKDLLL | + (+ = 0.5 to 1.5 relative activity over Rd2BB (SEQ ID NO: 10)) | + (+ = 0.5 to 1.5 relative activity over Rd2BB (SEQ ID NO: 10)) | + (+ = 0.5 to 1.5 relative activity over Rd2BB (SEQ ID NO: 10))
3 | 224 (protein, Synthetic Polypeptide sequence of Variant No. 224 of mature Human GLA) LDNGLARTPTMGWLHWERFMCNLDCQEEPDSCISEKLFMEMAELMVSEGWKDAGYEYLCIDDCWMAPQRDSEGRLQADPQRFPHGIRQLANYVHSKGLKLGIYADVGNKTCAGFPGSFGYYDIDAQTFADWGVDLLKFDGCYCDSLENLADGYKHMSLALNRTGRSIVYSCEWPLYMWPFQKPNYTEIRQYCNHWRNFADIDDSWASIKSILDWTSFNQERIVDVAGPGGWNDPDMLVIGNFGLSWNQQVTQMALWAIMAAPLFMSNDLRHISPQAKALLQDKDVIAINQDPLGKQGYQLRKGDNFEVWERPLSGLAWAVAVINRQEIGGPRSYTIAVASLGKGVACNPACFITQLLPVKRKLGFYNWTSRLRSHINPTGTVLLQLENTMQMSKDLLL | ++ (++ = 1.5 to 2.5 relative activity over Rd2BB (SEQ ID NO: 10)) | +++ (+++ = >2.5 relative activity over Rd2BB (SEQ ID NO: 10)) | +++ (+++ = >2.5 relative activity over Rd2BB (SEQ ID NO: 10))
